Experimental data reported in patent publication US20250282887A1 (Amgen, published 2025).
Substitutions are numbered along the chain they refer to. One block for each binder: values may come before it.

Assays:
[1] = biological target: T1, Human MAGEB2 (Melanoma-associated antigen B2) (human, UniProt O15479 1-319); assay: IHC on FFPE KMM-1 cells (endogenous MAGEB2)
T1 construct: Intracellular antigen detected by IHC in FFPE material: CHO cells transfected with human MAGEB2 (mCherry vector with Myc/DDK tags, or ORF without tags)
T1 sequence: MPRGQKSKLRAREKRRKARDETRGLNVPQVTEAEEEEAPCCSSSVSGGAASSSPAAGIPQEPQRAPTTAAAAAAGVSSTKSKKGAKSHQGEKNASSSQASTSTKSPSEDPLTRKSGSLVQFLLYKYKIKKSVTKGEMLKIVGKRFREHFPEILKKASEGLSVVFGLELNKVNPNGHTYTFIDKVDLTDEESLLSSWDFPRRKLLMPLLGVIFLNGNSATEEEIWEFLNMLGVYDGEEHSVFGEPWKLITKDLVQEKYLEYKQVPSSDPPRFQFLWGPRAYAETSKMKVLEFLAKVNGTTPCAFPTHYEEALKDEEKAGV
Experimental: (§1) FFPE samples were sectioned at 4 μm and mounted on positive charged glass slides. After mounting, paraffin sections were air-dried at room temperature. FFPE TMA samples were received as freshly sectioned and mounted on glass slides. The fully automated IHC assay was performed on a Discovery Ultra Stainer (Ventana Medical Systems, Tucson, AZ) using Ventana Anti-Rabbit HQ (cat #760-4815), Ventana Anti-HQ HRP (cat #760-4820), and Ventana Antibody Diluent with Casein (cat #760-219) (Ventana Medical Systems, Tucson, AZ). The slides were baked on the Discovery Ultra Stainer at 60° C. for 8 minutes, de-paraffinized with Ventana Discovery wash (cat #950-510) for 3 cycles (8 minutes each) at 69° C., and underwent cell conditioning (target retrieval) at 95° C. for 16 minutes (for cell arrays) or 32 minutes (tissues or TMAs) in CC1 buffer (cat #950-500). Following this, slides were incubated with Background Sniper (cat #BS966M, Biocare Medical, Pacheco, CA) in a Ventana Option Prep kit (cat #771-751) for 28 minutes, incubated with CM inhibitor (a part of the Ventana DAB kit cat #760-159) for 12 minutes, and incubated for 1 h at RT with MAGE-B2 antibody diluted with Ventana diluent with Casein in a Ventana Prep kit (cat #770-001) (working concentration at 0.1 μg/ml for cell pellet, or 1-5 ug/ml for tissues) or with a matched concentration of isotype control Rabbit IgG1 antibody. Following this, slides were incubated with the Ventana Anti-Rabbit HQ (cat #760-4815) for 28 minutes at RT, Ventana Anti-HQ HRP (cat #760-4820) for 28 minutes at RT, and signals detected with Ventana DAB chromogen kit (cat #760-159) for 5 minutes at RT. Slides were counterstained with Ventana Hematoxylin II (cat #5266726001) for 8 minutes and Ventana Bluing reagent (cat #526676900) for 4 minutes. Slides were coverslipped and digitized using an Aperio AT2 scanner (Leica Biosystems Inc, Buffalo Grove, IL).

[2] = biological target: T1, Human MAGEB2 (Melanoma-associated …); assay: IHC on FFPE VMRC-LCD cells (endogenous MAGEB2)
Experimental: as §1

[3] = biological target: T2, human MAGEA9 (human, UniProt P43362 1-315); assay: IHC, FFPE CHO cells transfected with human MAGEA9
T2 construct: whole, on cells; FFPE cell pellets
T2 sequence (looked up): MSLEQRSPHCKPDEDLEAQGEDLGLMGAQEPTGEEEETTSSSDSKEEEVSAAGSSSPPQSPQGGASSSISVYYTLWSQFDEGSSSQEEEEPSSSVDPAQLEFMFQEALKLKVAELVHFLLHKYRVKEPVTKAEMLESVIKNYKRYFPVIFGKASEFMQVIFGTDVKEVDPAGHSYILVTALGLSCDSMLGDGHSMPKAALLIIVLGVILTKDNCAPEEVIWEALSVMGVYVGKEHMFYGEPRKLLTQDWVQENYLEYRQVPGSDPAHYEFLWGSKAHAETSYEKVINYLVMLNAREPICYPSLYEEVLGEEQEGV
Experimental: as §1

[4] = biological target: T3, human MAGEB6 (human, UniProt Q8N7X4 1-407); assay: IHC, FFPE CHO cells transfected with human MAGEB6
T3 construct: whole, on cells; FFPE cell pellets
T3 sequence (looked up): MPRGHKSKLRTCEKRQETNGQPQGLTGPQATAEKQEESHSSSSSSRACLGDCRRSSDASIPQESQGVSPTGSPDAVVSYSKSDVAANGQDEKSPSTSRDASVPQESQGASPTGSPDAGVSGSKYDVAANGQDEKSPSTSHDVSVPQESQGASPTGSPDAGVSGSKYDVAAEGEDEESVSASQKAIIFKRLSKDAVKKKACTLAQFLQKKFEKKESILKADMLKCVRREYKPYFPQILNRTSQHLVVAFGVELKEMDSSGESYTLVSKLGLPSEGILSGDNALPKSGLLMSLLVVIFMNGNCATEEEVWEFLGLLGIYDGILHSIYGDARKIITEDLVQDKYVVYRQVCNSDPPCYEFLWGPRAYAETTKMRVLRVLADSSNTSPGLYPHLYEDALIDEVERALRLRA
Experimental: as §1

[5] = biological target: T4, human MAGEA11 (human, UniProt P43364 1-429); assay: IHC, FFPE CHO cells transfected with human MAGEA11
T4 construct: whole, on cells; Transfected into CHO cells with Myc/DDK tags
T4 sequence (looked up): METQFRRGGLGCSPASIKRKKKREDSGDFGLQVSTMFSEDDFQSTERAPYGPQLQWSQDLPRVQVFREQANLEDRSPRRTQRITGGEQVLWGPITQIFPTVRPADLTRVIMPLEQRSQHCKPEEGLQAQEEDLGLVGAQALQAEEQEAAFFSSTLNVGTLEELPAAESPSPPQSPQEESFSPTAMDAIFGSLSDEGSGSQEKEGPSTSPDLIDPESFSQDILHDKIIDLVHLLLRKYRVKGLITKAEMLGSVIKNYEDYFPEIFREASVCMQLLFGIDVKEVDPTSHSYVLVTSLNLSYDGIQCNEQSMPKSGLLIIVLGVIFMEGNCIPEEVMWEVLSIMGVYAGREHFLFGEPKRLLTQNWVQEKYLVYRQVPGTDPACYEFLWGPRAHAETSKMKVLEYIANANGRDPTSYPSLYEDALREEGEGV
Experimental: as §1

IHC % Frequency [1]: 70% | IHC Intensity [1]: 1 | IHC % Frequency [2]: 0% | IHC Intensity [2]: 0 | binding result [3]: no binding (tested: 0.1 µg/ml) | binding result [4]: no binding (tested: 0.1 µg/ml) | binding result [5]: no binding (tested: 0.1 µg/ml)
B1: 1C3 (antibody, V domains shown)
VH: QSLEESGGGLVQPEGSLTLTCTAFGVTLTNYYICWVRQAPGKGLEWVGCIDNANGRTYYASWAKGRFTISKTSSTTGTLQMTSLTAADTATYFCARSLATPLWGPGTLVTVSS
VL: DIVMTQTPSSVEAAVGGTVTIKCQASQNISSYLAWYQQKPGQPPKLLIYRASTLASGVPSRFKGSGSGTQFTLTISDLECADAATYYCQSYDDSRSSNFFYAFGGGTEVVVKG
notes: also called MAGE-B2 (IC3); anti-MAGEB2 antibody 1C3

IHC % Frequency [1]: 70% | IHC Intensity [1]: 2 | IHC % Frequency [2]: 0% | IHC Intensity [2]: 0 | binding result [3]: no binding (tested: 0.1 µg/ml) | binding result [4]: no binding (tested: 0.1 µg/ml) | binding result [5]: no binding (tested: 0.1 µg/ml)
B2: 4G17 (antibody, IgG1, V domains shown)
VH: B1 VH with F24S, T29S, V47I, A53V
VL: DIVMTQTPASVEAAVGGTVTIKCQASQNIDSYLAWYQQKPGQPPKLLIYRASTLASGVPSRFKGSGSGTEFTLTISDLECADAATYYCQSYDDSRSSSFFYGFGGGTEVVVK
notes: Rabbit monoclonal IgG1; Tested as supernatant and as small batch purified antibody; also called MAGE-B2 (4G17); anti-MAGEB2 antibody 4G17

IHC % Frequency [1]: 70% | IHC % Frequency [2]: 0% | IHC Intensity [2]: 0 | binding result [3]: no binding (tested: 0.1 µg/ml) | binding result [4]: no binding (tested: 0.1 µg/ml) | binding result [5]: no binding (tested: 0.1 µg/ml)
B3: 1J15 (antibody, IgG1, V domains shown)
VH: B1 VH with V26F, T29N, V47I, G48A, G77V, A99S
VL: B2 VL with N28S, D30S, A34S, K63R, E70Q, R95S, S96D, S97N, S98N, K112R
notes: Rabbit monoclonal IgG1; Tested as supernatant and as small batch purified antibody; also called MAGE-B2 (IJ15); anti-MAGEB2 antibody 1J15

IHC % Frequency [1]: 70% | IHC Intensity [1]: 1 | IHC % Frequency [2]: 0% | IHC Intensity [2]: 0 | binding result [3]: no binding (tested: 0.1 µg/ml) | binding result [4]: no binding (tested: 0.1 µg/ml) | binding result [5]: no binding (tested: 0.1 µg/ml)
B4: 1I14 (antibody, V domains shown)
VH: QSVEESGGRLVTPGTPLTLTCTISGFSLSSYAMSWVRQAPGKGLEWIGSIGGGGSAVYASWAKGRFTISKTSTTVDLRITSPTTEDTAMYFCGRGFYSIDLWGPGTLVTVSS
VL: DVVMTQTPASVEATVGGTVTIKCQSSQSVYDNNALAWYQQNAGQRPRLLIYGASTLASGVPSRFSASGSGTEFTLTISDLECADAATYYCQCTYYVSSYQNDFGGGTEVVVKG
notes: also called MAGE-B2 (1i14)
